For one assay, the system named is recombinant Ac-CP-2. Nature of the assay: Proteolytic activity of recombinant Ac-CP-2 against Z-Phe-Arg-AMC. The format is biochemical, Ancylostoma caninum. The method, then: Purified, recombinant Ac-CP-2 was assessed for proteolytic activity using the fluorogenic peptidyl substrate Z-Phe-Arg-aminomethyl coumarin (AMC) (Bachem). The pH optimum of Ac-CP-2 was assessed using Z-Phe-Arg-AMC at different pH values according to published protocols. The cysteine protease inhibitor E64 was included in some assays at a final concentration of 5 μM. Recombinant Ac-CP-2 was treated with PNGase F and O-glycosidase, according to the manufacturer's instructions (Enzymatic CarboRelease kit, QA-Bio), under denaturing conditions to remove any N-linked and O-linked oligosaccharides.
Canine IgG was purified from sera of vaccinated dogs using protein A-agarose (Amersham Biosciences) as previously described. Purified IgG (10-500 ng) was incubated with 1.0 μg of recombinant Ac-CP-2 for 45 mins prior to assessing proteolytic activity as described above.

In assay [1] the test system is antibody to recombinant proteins. Nature of the assay: Pre-challenge antibody titer ELISA, trial with Ac-ASP-2, Ac-API, Ac-MEP-1, Ac-APR-1 in AS03. Type of assay: in vivo, dog. The method, then: (§1) The vaccine trial was designed to test Ac-API, Ac-ASP-2, Ac-MEP-1, Ac-APR-1 formulated with Adjuvant System 03 (AS03) obtained from GlaxoSmithKline (GSK). The rationale for selecting AS03 as an adjuvants is discussed elsewhere (Stoute et al, 1997). The ten purpose bred beagles were randomized into five arms: immunized with the adjuvant-formulated recombinant proteins or adjuvant only (control). To make six doses of antigen formulated with AS03, […] of recombinant protein (0.3 ml of antigen at a concentration of 2 mg.ml^−1) was mixed with 1.2 ml of 20 mM Tris-HCl, 0.5 M NaCl, pH 7.9 and 1.5 ml of AS03; the contents of the tube were vortex mixed for 30 seconds then shaken at low speed for 10 minutes. Dogs were immunized with 100 g of formulated antigen in a final volume of 0.5 ml. ASO3 only control was prepared as described above, with PBS included instead of antigen. Formulation of GSK adjuvants were conducted according to the protocol provided by GSK. All injections were performed intramuscularly (IM). Test and control articles were prepared on the day of injection. All animals received 4 immunizations approximately 3 weeks apart.
Beagles were immunized with formulated Ac-ASP-2 as previously described (Loukas et al, 2004). The vaccines were administered IM three times beginning at age 62+/−4 days. Boosts were administered to the dogs at intervals of 21 days. Blood was drawn at least once every 21 days and serum was separated from cells by centrifugation. Each animal's specific antibody response was evaluated by indirect ELISA using serum taken prior to the infective challenge (Loukas et al, 2004). Recombinant Ac-ASP-2 was coated onto microtiter plates at a concentration of 5 g.ml^−1. Dog sera were titrated between 1:100 and 1:2×10^6 to determine endpoint titers. Anti-canine IgG1, IgG2 and IgE antibodies conjugated to horse-radish peroxidase (Bethyl Laboratories) were used at a dilution of 1:1,000.

The next assay relates to anti-ASP-2 antibodies. Description: ELISA of canine IgG1, IgG2, IgE after Ac-ASP-2/AS03 vaccination (Example 12). Type of assay: in vivo, dog. How it is done:
This study was conducted and reported in compliance with the intent of the Good Laboratory Practice Regulations (F.R. Vol. 43, No. 247, pp. 60013-60025, Dec. 22, 1978 and subsequent amendments). The study was audited by Quality Assurance while in progress to assure compliance with GLP regulations, adherence to the protocol and standard operating procedures. The data and final report were audited by Quality Assurance to assure that the report accurately described study conduct and results. The vaccine trial was designed to test Ac-ASP-2 formulated with Adjuvant System 03 (AS03) 44 obtained from GlaxoSmithKline. The rationale for selecting AS03 as an adjuvants is discussed elsewhere 37. The ten purpose bred beagles were randomized into two arms: immunized with Ac-ASP-2 (SEQ ID NO: 20) or adjuvant only (control). To make six doses of Ac-ASP-2 (SEQ ID NO: 20) formulated with AS03, 600 μg of recombinant protein (0.3 ml of Ac-ASP-2 (SEQ ID NO: 20) at a concentration of 2 mg.ml^−1) was mixed with 1.2 ml of 20 mM Tris-HCl, 0.5 M NaCl, pH 7.9 and 1.5 ml of AS03; the contents of the tube were vortex mixed for 30 seconds then shaken at low speed for 10 minutes. […]
Beagles were immunized with formulated Ac-ASP-2 (SEQ ID NO: 20) as previously described^37. […] Each animal's specific antibody response was evaluated by indirect ELISA using serum taken prior to the infective challenge^37. […]
For orientation: An ELISA detects its analyte on a solid surface through an enzyme-linked reagent.

The subject of the next assay is A. caninum. Description: Canine vaccine trial with Ac-ASP-2, Ac-API, Ac-MEP-1, Ac-APR-1 in AS03, footpad challenge with 500 A. caninum L3. Type of assay: in vivo, dog. How it is done:
as §1, with “The ten purpose bred beagles were randomized into five arms: immunized with the adjuvant-formulated recombinant proteins or adjuvant only (control).” left out
A. caninum larvae were cultured from eggs collected in the feces of infected dogs. All hookworms in the infective challenge were approximately equal age (17±7 days post hatching). The species identity of the infective larvae were validated using PCR. All dogs were infected by the footpad method with the same dose of 500 L3 of A. caninum (Zhan et al, 2001). Larval challenge occurred on one of three consecutive days (at age 120+/−9 days). Fourteen-sixteen days after the final immunization, dogs were anesthetized using a combination of ketamine and xylazine (20 mg.kg^−1 and 10 mg.kg^−1 respectively), and 500 A. caninum L3 in a final volume of […] were applied to the footpad.

Values joined by “and” are separate entries in the source; they are usually repeats but may differ in a detail not shown here. Identical values can stand only once.

`CC(C)C[C@H](NC(=O)[C@H]1O[C@@H]1C(=O)O)C(=O)NCCCCN=C(N)N` [E64]: the “% reduction in proteolytic activity” value in the assay on recombinant Ac-CP-2 (1.0 μg Ac-CP-2, Z-Phe-Arg-AMC, 50 ng pooled IgG or E64 5 μM, mean of triplicate) came out at 100 ± 0%. Moreover, in the assay on recombinant Ac-CP-2 (final concentration of 5 μM), the “cleavage of the peptide substrate, in words” value is reported as “completely ablated”.

B1: Ac-ASP-2: A. caninum secreted protein 2, SEQ ID NO: 20; recombinant from Sf9 insect cells, given with AS03 (protein, listed as Ancylostoma caninum)
chain: MLVLVPLLALLAVSVHGNSMRCGNNGMTDEARQKFLDVHNSYRSMVAKGQAKDAISGNAPKAAKMKKMIYDCNVESTAMQNAKKCVFAHSHRKGVGENIWMSTARQMDKAQAAQQASDGWFSELAKYGVGQENKLTTQLWNRGVMIGHYTQMVWQESYKLGCYVEWCSSMTYGVCQYSPQGNNMNSLTYEKGNPCTKDSDCGSNASCSAGEALCVVRG
Take B1: in assay [1] (geometric mean of group), the “Pre-challenge antibody titer, IgE, GEOMEAN” value was found to be 100; the “Pre-challenge antibody titer, IgG1, GEOMEAN” value is 10,837; the “Pre-challenge antibody titer, IgG2, GEOMEAN” value is reported as 20,950. In assay [1] (immunized canines), the “IgG1 and IgG2 antibody titers to recombinant Ac-ASP-2, in words” value is “strong”. Moreover, in assay [1] (individual dogs), the “Pre-challenge antibody titer, IgE” value is reported as 100; the “Pre-challenge antibody titer, IgG1” value is 13,500 (4×) and 4,500; the “Pre-challenge antibody titer, IgG2” value is 40,500 (2×) and 13,500 (3×). In assay [1] (test canines), the “IgE titers to Ac-ASP-2, in words” value is “one log lower than the IgG1 and IgG2 titers”. In addition, the “IgG1 and IgG2 antibody titers to recombinant Ac-ASP-2, in words” value in the assay on anti-ASP-2 antibodies (immunized canines) is given as “strong”. The “IgE titers to Ac-ASP-2, in words” value in the assay with anti-ASP-2 antibodies (test canines) is “one log lower than the IgG1 and IgG2 titers”. In the assay with A. caninum (5 dogs), the “worm burdens, Maximum” value is listed as 226.00 and the “worm burdens, Minimum” value is recorded as 89.00. Also, the “worm burdens, Mean” value in the assay with A. caninum (5 dogs, ASO3 control 203.8000) came to 166.0000. For the same molecule, the “worm burdens, Median” value in the assay with A. caninum (5 dogs, ASO3 control 215.0000) is recorded as 174.0000. For the same molecule, the “worm burden, Colon, Male, Average” value in the assay with A. caninum (group average, AS03 control 5) came to 4. Further, the “worm burden, Colon, Female, Average” value in the assay on A. caninum (group average, AS03 control 9) came out at 5. In the assay on A. caninum (group average, AS03 control 95), the “worm burden, Intestine, Female, Average” value turned out to be 81. The “worm burden, Intestine, Male, Average” value in the assay on A. caninum (group average, AS03 control 96) is given as 76. Further, the “worm burden, Total, Average” value in the assay on A. caninum (group average, AS03 control 204) worked out at 166. In the assay with A. caninum (individual dogs), the “worm burden, Colon, Female” value was 5 and 4 and 3 and 8 and 6; the “worm burden, Colon, Male” value was 5 and 4 and 1 (2×) and 9; the “worm burden, Intestine, Female” value is 87 and 101 and 115 and 72 and 28; the “worm burden, Intestine, Male” value is 62 and 72 and 107 and 85 and 54. In the assay on A. caninum (individual dogs), the “worm burden, Total” value was 160 and 181 and 226 and 174 and 89.

Source of the values: US7303752B2, “Hookworm vaccine” (The George Washington University, priority 2001, dated 2007).
